These results are taken from patent US20090175880A1 (published 2009).

Experiment [1] addresses T1, soluble fusion protein comprising a DEC-205 extracellular domain (comprising all ten lectin-binding domains) … (human, UniProt O60449 28-1666).
T1 construct: not shown: antibody Fc domain
The experiment can be described thus: SPR (Biacore 2000), DEC-205 fusion protein amine-coupled to CM5 chip, antibody flowed at 1.25-200 nM, 1:1 Langmuir fit, mean of two series. The source says:
Low levels of ligand were immobilised to limit any effects of mass transport of analyte on kinetic parameters, such that the RMAX observed was in the order of 200 RU.
The antigen-antibody association and dissociation kinetics were followed for approximately 300 to 600 seconds in each case.
Biacore's kinetics wizard was used in each case to derive kinetic parameters from the concentration series of analyte diluted in HBS-NP running buffer. The association and dissociation curves were fitted to a 1:1 Langmuir binding model using Biacore™ kinetics wizard software (Biacore AB) according to the manufacturer's guidelines. For each antibody, the figures shown are the mean of two separate series of experiments, using separately prepared sensor chips in each case, (where ka=rate constant of association, kd=rate constant of dissociation, KD=dissociation equilibrium constant (measure of affinity), KA=association equilibrium constant, Rmax=maximum SPR response signal).
On the technique in general: Surface plasmon resonance follows binding to a sensor surface in real time, without labels.

In experiment [2] the target is soluble fusion protein comprising a DEC-205 extracellular domain (comprising all ten lectin-binding domains) fused with an antibody Fc domain (human) (UniProt O60449). The description is as above.
Chain of soluble fusion protein comprising a DEC-205 extracellular domain (comprising all ten lectin-binding domains) fused with an antibody Fc domain (human) (O60449 28-1666 K1321N/Y1391H): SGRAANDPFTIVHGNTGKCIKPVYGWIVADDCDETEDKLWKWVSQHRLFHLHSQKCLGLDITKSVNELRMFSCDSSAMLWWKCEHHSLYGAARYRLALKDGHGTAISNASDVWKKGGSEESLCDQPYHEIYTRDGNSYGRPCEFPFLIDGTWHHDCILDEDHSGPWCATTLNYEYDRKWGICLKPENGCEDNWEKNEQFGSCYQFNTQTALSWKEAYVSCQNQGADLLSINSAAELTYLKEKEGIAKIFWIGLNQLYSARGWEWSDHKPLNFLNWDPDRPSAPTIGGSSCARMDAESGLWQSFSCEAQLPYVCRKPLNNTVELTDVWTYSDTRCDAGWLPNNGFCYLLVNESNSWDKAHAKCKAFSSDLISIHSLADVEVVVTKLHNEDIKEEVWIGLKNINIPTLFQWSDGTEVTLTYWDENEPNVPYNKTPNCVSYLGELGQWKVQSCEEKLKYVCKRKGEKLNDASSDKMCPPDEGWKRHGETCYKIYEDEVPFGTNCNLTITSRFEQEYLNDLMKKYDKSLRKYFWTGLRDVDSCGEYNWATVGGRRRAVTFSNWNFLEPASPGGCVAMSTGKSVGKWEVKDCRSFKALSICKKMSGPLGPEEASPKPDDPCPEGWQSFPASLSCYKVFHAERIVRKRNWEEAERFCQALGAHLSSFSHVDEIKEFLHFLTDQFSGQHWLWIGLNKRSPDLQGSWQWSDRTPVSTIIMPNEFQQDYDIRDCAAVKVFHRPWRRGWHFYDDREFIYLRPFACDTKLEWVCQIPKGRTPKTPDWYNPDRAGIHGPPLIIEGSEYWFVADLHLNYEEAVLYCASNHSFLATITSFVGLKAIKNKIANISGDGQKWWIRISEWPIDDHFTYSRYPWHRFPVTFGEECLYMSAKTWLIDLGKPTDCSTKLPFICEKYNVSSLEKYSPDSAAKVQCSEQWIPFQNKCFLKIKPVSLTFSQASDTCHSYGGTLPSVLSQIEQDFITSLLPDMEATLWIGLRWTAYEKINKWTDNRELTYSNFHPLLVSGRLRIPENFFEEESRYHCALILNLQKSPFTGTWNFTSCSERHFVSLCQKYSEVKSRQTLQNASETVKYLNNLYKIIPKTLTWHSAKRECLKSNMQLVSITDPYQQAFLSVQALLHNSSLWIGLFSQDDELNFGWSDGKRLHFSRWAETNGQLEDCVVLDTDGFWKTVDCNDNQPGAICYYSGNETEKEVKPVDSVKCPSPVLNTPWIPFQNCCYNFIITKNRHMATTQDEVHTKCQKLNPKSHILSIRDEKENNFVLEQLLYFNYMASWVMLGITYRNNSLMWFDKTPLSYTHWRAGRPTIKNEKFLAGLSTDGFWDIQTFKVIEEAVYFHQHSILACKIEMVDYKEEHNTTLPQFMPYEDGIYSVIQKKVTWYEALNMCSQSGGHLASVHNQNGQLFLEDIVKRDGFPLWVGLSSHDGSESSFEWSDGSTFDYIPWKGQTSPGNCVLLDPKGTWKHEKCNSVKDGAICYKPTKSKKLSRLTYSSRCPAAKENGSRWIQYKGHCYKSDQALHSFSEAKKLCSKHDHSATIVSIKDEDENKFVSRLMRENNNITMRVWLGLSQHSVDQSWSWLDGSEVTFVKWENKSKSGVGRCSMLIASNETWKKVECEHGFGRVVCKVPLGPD
Experiment [3] addresses human DEC-205 expressed on the cell surface (human, UniProt O60449 28-1722). The experiment can be described thus: flow cytometry on CHO-S cells expressing human DEC-205, saturating antibody, PE anti-human IgG Fc.
Experiment [4] concerns the target T1, soluble fusion protein comprising a …. The experiment is described as follows: ELISA, plates coated with soluble DEC-205/Fc fusion protein, saturating antibody, AP anti-human IgG Fc, OD 405-650. (In general: An ELISA detects its analyte on a solid surface through an enzyme-linked reagent.)

T1 sequence (O60449 28-1666 K1321N/Y1391H): as above
Chain of human DEC-205 expressed on the cell surface (O60449 28-1722 K1321N/Y1391H limits assumed): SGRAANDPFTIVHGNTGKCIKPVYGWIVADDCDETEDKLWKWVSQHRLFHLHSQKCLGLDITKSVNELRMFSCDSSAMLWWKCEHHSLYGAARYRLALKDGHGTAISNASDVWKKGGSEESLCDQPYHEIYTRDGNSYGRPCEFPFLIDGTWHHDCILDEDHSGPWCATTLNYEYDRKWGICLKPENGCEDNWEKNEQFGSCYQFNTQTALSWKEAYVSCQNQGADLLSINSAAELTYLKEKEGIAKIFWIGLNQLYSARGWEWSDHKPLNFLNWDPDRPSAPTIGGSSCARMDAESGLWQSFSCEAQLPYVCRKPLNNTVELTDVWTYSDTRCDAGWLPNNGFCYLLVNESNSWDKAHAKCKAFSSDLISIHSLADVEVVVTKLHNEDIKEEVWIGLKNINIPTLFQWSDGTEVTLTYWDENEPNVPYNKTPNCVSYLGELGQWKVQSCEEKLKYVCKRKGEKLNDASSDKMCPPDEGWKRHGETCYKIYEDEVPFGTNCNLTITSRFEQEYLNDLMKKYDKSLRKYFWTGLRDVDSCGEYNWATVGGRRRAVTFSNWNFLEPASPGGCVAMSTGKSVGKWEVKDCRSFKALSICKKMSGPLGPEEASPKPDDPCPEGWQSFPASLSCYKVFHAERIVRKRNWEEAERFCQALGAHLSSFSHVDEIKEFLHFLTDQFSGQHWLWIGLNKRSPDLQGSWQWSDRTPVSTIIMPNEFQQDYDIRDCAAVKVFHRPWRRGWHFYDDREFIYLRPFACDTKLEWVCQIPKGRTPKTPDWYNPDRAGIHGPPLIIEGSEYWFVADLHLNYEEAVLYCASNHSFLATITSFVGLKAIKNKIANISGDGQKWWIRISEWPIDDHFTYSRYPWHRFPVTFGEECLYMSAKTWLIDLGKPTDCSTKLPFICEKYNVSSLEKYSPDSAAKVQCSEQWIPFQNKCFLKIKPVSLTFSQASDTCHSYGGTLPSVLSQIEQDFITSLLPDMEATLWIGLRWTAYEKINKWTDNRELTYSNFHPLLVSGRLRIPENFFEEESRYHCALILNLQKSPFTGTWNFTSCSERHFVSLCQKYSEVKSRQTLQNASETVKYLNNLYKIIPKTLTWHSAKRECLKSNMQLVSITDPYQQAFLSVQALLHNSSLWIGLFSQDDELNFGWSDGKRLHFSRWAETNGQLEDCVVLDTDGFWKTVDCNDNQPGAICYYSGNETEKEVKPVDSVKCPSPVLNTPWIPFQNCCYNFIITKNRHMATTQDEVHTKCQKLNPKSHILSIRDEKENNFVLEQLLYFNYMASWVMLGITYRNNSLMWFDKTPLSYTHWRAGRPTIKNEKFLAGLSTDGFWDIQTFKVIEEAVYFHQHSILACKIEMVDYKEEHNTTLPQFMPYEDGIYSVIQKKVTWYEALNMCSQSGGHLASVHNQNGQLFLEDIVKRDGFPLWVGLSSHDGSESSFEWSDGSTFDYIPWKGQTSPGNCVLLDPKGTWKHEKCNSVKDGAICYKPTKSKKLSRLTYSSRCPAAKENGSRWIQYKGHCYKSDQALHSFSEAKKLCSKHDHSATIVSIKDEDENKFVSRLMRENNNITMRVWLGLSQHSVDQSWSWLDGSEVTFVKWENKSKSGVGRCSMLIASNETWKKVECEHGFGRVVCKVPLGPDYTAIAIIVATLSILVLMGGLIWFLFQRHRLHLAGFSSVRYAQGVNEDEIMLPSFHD

B1: 3C7-3A3 (antibody, V domains shown)
VH: QVQLVESGGGVVQPGRSLRLSCAASGFTFSSYNMHWVRQAPGKGLEWVAFIWYDGSNKYYGDSVKGRFTISRDNSKNTLYLQMNSLRAEDTAVYYCAREELGIGWYFDLWGRGTLVTVSS
VL: EIVLTQSPATLSLSPGERATLSCRASQSVSSYLAWYQQKPGQAPRLLIYDASNRATGIPARFSGSGSGTDFTLTISSLEPEDFAVYYCQQRRTFGQGTKVEIK
notes: Human IgG (kappa) from a hybridoma, protein A purified; also called mAb #3; HuMab 3C7-3A3
For orientation: Kd means the concentration at which binding is half-saturated. In general, koff refers to the rate constant with which the complex falls apart. A high value points to fast dissociation. In general, kon refers to a measure of how fast the partners come together. A higher kon goes with faster complex formation. In experiment [1], B1 gave a Ka of 5.2e+08 M⁻¹, a dissociation constant Kd of 5.6 nM, a koff of 0.00076 s⁻¹ and a kon of 170000 M⁻¹ s⁻¹.

B2: 5A8-1F1 (antibody, V domains shown)
VH: QVQLVESGGGVVQPGRSLRLSCAASGFTFSTYGMHWVRQAPGKGLEWVAIIWYDGGNKYYADSVKGRFTISRDNSKNTLYLQMNSLRAEDTAVYYCARDFYWYFDLWGRGTLVTVSS
VL: B1 VL
notes: Human IgG (kappa) from a hybridoma, protein A purified; also called mAb #2; HuMab 5A8-1F1
With B2, in experiment [1], the Ka was 2.1e+09 M⁻¹, binding was characterised by a dissociation constant (Kd) of 1.5 nM, the dissociation rate constant (koff) was 0.0002 s⁻¹ and the on-rate constant (kon) worked out at 360000 M⁻¹ s⁻¹.

B3: 3G9-2D2 (antibody, V domains shown)
VH: QVQLVESGGGVVQPGRSLRLSCAASGFTFSNYGMYWVRQAPGKGLEWVAVIWYDGSNKYYADSVKGRFTISRDNSKNTLYLQMNSLRAEDTAVYYCARDLWGWYFDYWGQGTLVTVSS
VL: EIVLTQSPATLSLSPGERATLSCRASQSVSSYLAWYQQKPGQAPRLLIYDASNRATGIPARFSGSGSGTDFTLTISSLEPEDFAVYYCQQRRNWPLTFGGGTKVEIK
notes: Human IgG (kappa) from a hybridoma, protein A purified; also called mAb #8; HuMab 3G9-2D2
Turning to B3, in experiment [1], the Ka came to 4.7e+09 M⁻¹, the Kd came to 0.24 nM, the dissociation rate constant (koff) is 0.00019 s⁻¹ and the on-rate constant (kon) stood at 900000 M⁻¹ s⁻¹.

B4: 2D3-1F5-2A9 (antibody, part only; not given: light chain, V domains shown, part only)
VH: EVQLVQSGGGLVHPGGSLRLSCAGSGFTFSNYAMHWVRQAPGKGLEWVSTIGTGGGTPYADSVKGRFTISRDNAKNSLYLQMNSLRAEDMAVYYCALSAFDVWGQGTMVTVSSASTKGPSVFPLA
In experiment [2], B4 yielded a Ka of 1.5e+10 M⁻¹, a Kd of 0.068 nM, a koff of 2.2e-05 s⁻¹ and an association rate constant (kon) of 330000 M⁻¹ s⁻¹.

B5: 3D6-2F4 (antibody, V domains shown)
VH: QVQLVESGGGVVQPGRSLRLSCAASGFIFSIYGMHWVRQAPGKGLEWVAVIWYDGSNKYYADSVKGRFTISRDNSKNTLYLQMNSLRAEDTAVYYCARAPHFDYWGQGTLVTVSS
VL: DIQMTQSPSSLSASVGDRVTITCRASQGISSWLAWYQQKPEKAPKSLIYAASSLQSGVPSRFSGSGSGTDFTLTISSLQPEDFATYYCQQYNSYPYTFGQGTKLEIK
notes: Human IgG (kappa) from a hybridoma, protein A purified; also called mAb #5; HuMab 3D6-2F4
As to B5, in experiment [1], the Ka worked out at 1.5e+10 M⁻¹, the equilibrium dissociation constant (Kd) stood at 0.08 nM, the dissociation rate constant (koff) came out at 0.00012 s⁻¹ and the kon was 1.8e+06 M⁻¹ s⁻¹.

B6: 3D6-4C8 (antibody, V domains shown)
VH: B5 VH
VL: AIQLTQSPSSLSASVGDRVTITCRASQGISSALAWYQQKPGKAPKLLIYDASSLESGVPSRFSGSGSGTDFTLTISSLQPEDFATYYCQQFNSYPLTFGGGTKVEIK
notes: Human IgG (kappa) from a hybridoma, protein A purified; also called HuMab 3D6-4C8
Consider B6, for which the binding result in experiment [3] and in experiment [4] was “binds” in each case.
